Laboratory results taken from patent publication US11904004B2, “Anti-CD277 antibodies” (INSTITUT NATIONAL DE LA SANTE ET DE LA RECHERCHE MEDICALE …, priority 2010, dated 2024).

Tests used:
Format in all cases: cell-based, human
NK cells = test: Functional assay on NK cells, redirected cytolytic activity
Protocol: Fresh NK cells were sorted with EASY SEP® negative selection kit and incubated over night in medium completed with sub-optimal concentrations of IL-2 (100 U/ml) and IL-15 (10 ng/ml). NK cell receptors functions were tested in re-directed cytolytic experiments against the FcγR positive P815 mastocytoma murine cell line. Briefly, effector cells were incubated with P815 cells pre-coated for 30 minutes with the mAb of interest (irrelevant mouse IgG1: 11 μg/ml, anti-NKp46: 1 μg/ml, anti-DNAM: 5 μg/ml, anti-CD277 20.1: 10 μg/ml) according to a 1:1 Effector:Target (E/T) ratio. Cytotoxic tests were performed in 4-hours assays in the presence of GOLGISTOP® (protein transport inhibitor) and soluble CD107 (a&b)-FITC (both from BD Biosciences), afterward cells were stained for surface markers (CD56-PeCy7 (Beckman Coulter, Immunotech), fixed and permeabilized (CYTOFIX/CYTOPERM®) then stained with intracellular mAb (IFN-γ (Beckman Coulter, Immunotech)). Cells were finally re-suspended in PBS 2% para-formaldehyde and extemporaneously analyzed on a BD FACS CANTO® (BD Biosciences, San Jose, Calif.). The degree of activation of NK cells was measured based on the percentage of cells positive for CD107a and CD107b (degranulation) and/or the production of inflammatory cytokine (IFN-γ).

CD4+ T cells [1] = test: Functional assays on CD4+ T cells using plate-immobilized mAbs
Protocol: Purified CD4+ T cells (200×10^3 cells/well) from thawed human PBMCs were cultured in RPMI 1640 10% FBS in flat bottom 96-well plates (MICROTEST™ 96, BD) with previously plate-immobilized mouse anti-human CD3 (clone OKT3)/CD28 (clone CD28.2) or anti-CD3/anti-CD277 (clone 20.1) or anti-CD3/isotypic control (IgG1). Purified anti-CD3 was used at 0, 3 μg/ml. Anti-CD28, anti-CD277 and isotypic control were used at 10 μg/ml. Cells were placed into an atmosphere of 5% CO2 at 37° C. in a humidified incubator. […] […] Data were analyzed using FLOWJO® Software (TreeStar, Ashland, OR).

CD4+ T cells [2] = test: AKT and ERK phosphorylation, phosphoflow
Protocol: Human CD4^+ T cells were purified by negative selection from PBMCs using magnetic beads (MILTENYI BIOTEC®) according to the manufacturer's protocol. CD4 T cells were routinely more than 97% pure. Cells were incubated 24 hours in RPMI 1640 10% FBS at 37° C.
CD4^+ T cells were washed and stimulated at different times (2, 5, 10 and 30 minutes) with aAPC at a ratio of 1:3 (cells to beads) comprised of magnetic beads (DYNABEADS® M-450 Epoxy, Dynal Biotech) were coated with the following mAbs: anti-CD3 (OKT3), anti-human CD28 (CD28.2), and/or various concentrations of anti-human CD277 (CD277. 20.1 clone) or isotype control IgG1. These aAPCs were coated with suboptimal anti-CD3 Ab (5%), suboptimal levels of anti-CD28 Ab (10%), and either IgG1 Ab (CD3/CD28/IgG1), anti-CD277.20.1 Ab (CD3/CD28/CD277.20.1+IgG1), constituting the remaining 85% of protein added to the bead. The amount of protein was kept constant at […] by the addition of control IgG1. We examined the effect of mAbs CD277 clones engagement on AKT and ERK phosphorylation in CD4+T cells by PHOSPHOFLOW® proteomic method, which uses state-specific antibodies to detect target phosphoproteins by fluorescence-activated cell sorting (FACS). We assessed the activity of the signalling pathways after exposure of the cells to beads stimulations. We apply a sandwich-labeling method, which involves the application of a biotin-conjugated secondary antibody followed by detection with fluorescently conjugated streptavidin. […] Cells were permeabilized, fixed and analyzed after intracellular staining of the target phosphproteins (AKT and ERK) by the use of CYTOFIX/CYTOPERM® KIT and perm/wash buffer (BD Biosciences).

Vγ9Vδ2 T cells = test: Stimulation and expansion assay of Vγ9Vδ2 T cells from PBMC
Protocol: P815 (mouse mastocytoma cell line), K562 (chronic myeloid leukaemia cell line), Raji and Daudi (Burkitt lymphoma cell lines) were cultured in RPMI 1640 medium (Invitrogen) and 10% foetal calf serum (FCS) (Eurobio). The PBMC from healthy donors were distributed at 106/ml in 24-well culture plates at 37° C. in 5% CO2 in RPMI 1640 medium and 10% FCS. Polyclonal Vγ9Vδ2 T cells were specifically expanded with 3 μmol/l of Phosphostim (BrHPP molecule, Innate Pharma, Marseille, France) and 100 U/ml IL-2 (Chiron, Basel, Switzerland) for 12 days. Phosphostim was added once at the onset of the culture. Every 2 days, one-half of the culture medium volume was replaced with fresh medium containing 100 U/ml IL-2.
PBMC were plated and stimulated as described in the paragraph: cell lines and expansion of γδ T cells, except cells were stimulated with anti-CD277 mAbs (10 μg/ml); or control isotypes (10 μg/ml); and with or without BrHPP at different concentrations. […] Percentages of Vγ9Vδ2 were measured the first day and the last day of culture as described above. Expanded γδ T cells effectors were stimulated with or without different doses of BrHPP added in anti-CD277 mAbs at 10 μg/ml; or with OKT3 (4 ng/ml) associated with anti-BT3 19.5 mAb in different concentrations. Activation of degranulation was measured by CD107 labelling assay as described above.

[3] = with anti-NKp46 or anti-CD16, data not shown
[4] = co-stimulation with anti-CD3, vs anti-CD3/IgG1 control, after 24 hours of culture
[5] = antibody-coated beads, anti-CD3 plus anti-CD277
[6] = with anti-CD3 plus anti-CD28, 2, 5, 10 and 30 minutes, dose and time dependent

B1: mAb 20.1: murine anti-CD277 antibody obtainable from the hybridoma CNCM I-4402; agonist (antibody, V domains shown)
VH: QVQLQQSGAELVKPGASVKLSCKASGYTFTRYYLYWVKQRPGQGLEWIGEINPNNGGTKFNEKFKSKATLTVDKSSRTTYIQLSSLTSEDSAVYYCSREDDYDGTPDAMDYWGQGTAVTVSS
VL: DIQMNQSPSSLSASLGDTITITCHASQNINLWLSWYQQRPGNIPKLLIYRASNLHTGVPSRFSGSGSATGFTLTISSLQPEDIATYYCQQGHSYPYTFGGGTKLDIK
- NK cell stimulation by CD277 mAb alone (NK cells; P815 redirected assay): did not have any effect
- NK cell IFN-γ secretion, co-stimulation of NKp46 or CD16 (NK cells; [3]): not affected
- NK cell cytotoxicity, co-stimulation of NKp46 or CD16 (NK cells; [3]): not affected
- IFN-γ production by CD4+ T cells (ELISA) (CD4+ T cells [1]; [4]): strongly enhanced
- IL-2 production by CD4+ T cells (ELISA) (CD4+ T cells [1]; [4]): significantly highest than the one with the IgG control
- CD25 activated positive cells (CD4+ T cells [1]; co-stimulation with anti-CD3, after 3 days of culture): 45%
- phosphorylation of AKT (CD4+ T cells [2]; [5]): induced the phosphorylation
- phosphorylation of ERK (CD4+ T cells [2]; [5]): induced the phosphorylation
- phosphorylation of AKT induced by CD3+CD28 stimulation (CD4+ T cells [2]; [6]): strongly up regulated
- phosphorylation of ERK induced by CD3+CD28 stimulation (CD4+ T cells [2]; [6]): strongly up regulated
- proliferation of Vγ9Vδ2 cells (CFSE) (Vγ9Vδ2 T cells; PBMC + IL-2): associated with the proliferation
- expansion of Vγ9Vδ2 T cells (Vγ9Vδ2 T cells; PBMC + IL-2, 15 days of culture): expanded
